In assay [1] the target is TssF-Strep (EAEC) (enteroaggregative Escherichia coli (EAEC) 17-2). As to the kind of experiment: pull-down; soluble extracts of E. coli BL21(DE3) producing the TssKFGE wedge complex with TssG wild type or foot variants; TssF-Strep used to pull down TssG by affinity purification; level of copurified TssG quantified.
For assay [2], the system named is TssK-TssFGE (TssKFGE wedge complex). As to the kind of experiment: Biolayer interferometry (BLI), TssFGE binding to biotinylated TssK. The class given is biochemical, enteroaggregative Escherichia coli (EAEC). The note with it: BLI, 47 μM TssFGE lysate, TssK preincubated with 1 mM peptide, kinetic buffer pH 7.3; mean ± SD of three independent assays. The protocol:
Streptavidin-tagged TssK was purified as described above. The TssK trimer was further polished by size exclusion chromatography using a Superose 6 10/300 GL (GE Healthcare) in 50 mM HEPES (pH 7.0), 150 mM NaCl at 0.25 ml/min. For biolayer interferometry (BLI) experiments, we used high-precision Strep (SAX) biosensors from Forté Bio (number 18-5117) on the BLItz machine (Forté Bio). The trimeric ligand TssK was biotinylated using equimolar N-hydroxysuccinimide (NHS)–polyethylene glycol 4 (PEG4)–biotin (Pierce EZ-Link; 21330) in 50 mM HEPES (pH 7.0), NaCl 150 mM for 1 h at room temperature before buffer exchange in CentriPure P2 (Generon; IRL) columns against 50 mM HEPES (pH 7.0), NaCl 150 mM to remove the excess biotin. BL21(DE3) cells were used to express the interacting analytes TssG-TssF-TssE. In addition, cells containing an empty plasmid were used as a control. Cells were broken as described above, and the clarified supernatants after centrifugation for 30 min at 20,000 × g contained the control and TssFGE lysate. Streptavidin biosensors were hydrated for 10 min in HEPES buffer before binding of the biotinylated TssK. Biotinylated TssK was loaded at 1.2 μM onto the SAX biosensors for 120 s, and then the excess TssK was dissociated in HEPES buffer for 120 s. For the remaining kinetic assays, we used kinetic buffer (PBS [pH 7.3] plus 0.02% Tween 20, 0.1% bovine serum albumin [BSA], 0.05% sodium azide) (Forté Bio number 18-5032) with orbital shaking at 2,200 rpm. Kinetic buffer (KB) was used to dilute the lysates and the peptide to decrease nonspecific signals. The unbound Strep sites were blocked with 2 μM control lysate for 120 s and washed with KB for 120 s. The kinetic assays were performed using three steps with different times: baseline, 30 s; association, 120 s; and dissociation, 120 s. All the following assays were performed in triplicate. […] In the first assay, we added 47 μM lysate expressing the analytes TssG, TssF, and TssE to the bound TssK. In the second assay, we added 1 mM wild-type (WT) BCP to the bound TssK before adding 47 μM TssF-TssG-TssE. In the third assay, to validate the specificity of the WT BCP we added 1 mM mutant BCP that lacks the binding residues to the bound TssK before adding 47 μM TssF-TssG-TssE. Last, to redemonstrate the specificity of the BCP-WT, we added 1 mM randomized BCP that contains the binding residues but out of order to the bound TssK before adding 47 μM TssF-TssG-TssE.
(In BLI a coated tip is dipped into the sample, and binding shifts an interference pattern.)

Assay [3] has as its target Strep-tagged TssK (EAEC) (enteroaggregative Escherichia coli (EAEC) 17-2). As to the kind of experiment: BLI; as a7, but 1 mM mutated BCP added to the bound TssK before 47 μM TssFGE lysate.
Assay [4] has the same target. The assay can be described thus: BLI; as a7, but 1 mM wild-type BCP added to the bound TssK before 47 μM TssFGE lysate.
Assay [5] has the same target. The assay can be described thus: BLI; biotinylated TssK loaded at 1.2 μM on streptavidin (SAX) biosensors, blocked with control lysate; 47 μM TssFGE lysate in kinetic buffer (PBS pH 7.3, 0.02% Tween 20, 0.1% BSA); no peptide.
Assay [6] has the same target. The assay can be described thus: BLI; as a7, but 1 mM randomized BCP added to the bound TssK before 47 μM TssFGE lysate.
Assay [7] deals with TssK-6×His (EAEC) (enteroaggregative Escherichia coli (EAEC) 17-2). As to the kind of experiment: native gel or EMSA; clarified BL21(DE3) lysates on a native 4 to 16% gel, immunoblot with anti-His antibodies. (In EMSA bound probe runs differently from free probe, usually more slowly.)
Assay [8] has as its target Strep-tagged TssK (EAEC) (enteroaggregative Escherichia coli (EAEC) 17-2). As to the kind of experiment: ITC; 25 μM TssK in the cell, 1 mM peptide in the syringe; 50 mM HEPES pH 7.0, 150 mM NaCl, 25°C; One Set of Sites model.

One may read the stoichiometry N as the number of molecules, sites or subunits per partner or assembly. For orientation: Kd means the constant that tells how readily two partners part at equilibrium.

In the case of “Flag-tagged TssG (EAEC) (natural protein)”, in assay [1], the amount of TssG copurified using TssF-based pulldown was 74.8%.
The molecule “Flag-tagged TssG with the foot 1 domain deleted (natural protein)” yielded an amount of TssG copurified using TssF-based pulldown in assay [1] of 4.6%.
On the same count and under the same terms, the result for “Flag-tagged TssG with the foot 2 domain deleted (natural protein)” reads 1.1%.
Take “SRPVAG-SRPVAG-SRPVAG (head to tail) [mutated BCP]”: the “maximum binding average response of TssFGE to TssK at 150 s in presence of peptide” value in assay [2] is recorded as 0.169 ± 0.016 nm.
The same measure, in the same setting: the result for “SVRMPG-SPMRVG-SMVRPG (head to tail) [randomized BCP, randomized control version (SVRMPG-SPMRVG-SMVRPG)]” reads 0.160 ± 0.028 nm.
For TssF-TssG-TssE (EAEC) (complex), the maximum binding average response at 150 s, TssK preincubated with 1 mM mutated BCP in assay [3] was found to be 0.169 nm. Moreover, the maximum binding average response at 150 s, TssK preincubated with 1 mM wild-type BCP in assay [4] is 0.121 nm. In assay [5], the maximum binding average response at 150 s association amounted to 0.189 nm. This molecule had a maximum binding average response at 150 s, TssK preincubated with 1 mM randomized BCP in assay [6] of 0.16 nm.
In assay [7], TssK-6×His (EAEC) (natural protein) had a stoichiometry N of 3.

B1: biomimetic cyclic peptide (BCP) (peptide)
peptide: SRPVMGSRPVMGSRPVMG
modifications: head-to-tail cyclization
On to B1, for which the Kd in assay [8] came to 60 µM.

For the origin of these results see paper PMC8406304, “Inhibiting Type VI Secretion System Activity with a Biomimetic Peptide Designed To Target the Baseplate Wedge Complex” (mBio, 2021).
